The source of these data is the DeepSol protein solubility set.

The data set can be described thus: soluble on expression in E. coli; label from the status in PepcDB or PDB records.
As to “MFKRETKDFINIDPLQTGGKLTEEARQALLEWGDGYSVCDFCTTGRLDEIKTPPIHDFIHNQLPKFLGCDVARVTNGAREAKFAVMHSLAKKDAWVVMDENCHYSSYVAAERAGLNIALVPKTDYPDYAITPENFAQTIEETKKRGEVVLALITYPDGNYGNLPDVKKIAKVCSEYDVPLLVNGAYAIGRMPVSLKEIGADFIVGSGHKSMAASGPIGVMGMKEEWAEIVLRRSEKYKNKEVELLGCTARGATIITLMASFPHVRERIKRWDEEVEKARRFAAEMEKLGIKQLGDNPHNHDLMFFHAEVLYEISKKAKGGRFFLYRELKSRKIHGIKPGLTRYFKLSTYGLSDEEVDYVLNAFKEIIEKYS”, the “soluble on expression in E. coli” value was “soluble”. As to “SAEFRVRVSTGEAFGAGTWDKVSVSIVGTRGESPPLPLDNLGKEFTAGAEEDFQVTLPEDVGRVLLLRVHKAPPVLPLLGPLAPDAWFCRWFQLTPPRGGHLLFPCYQWLEGAGTLVLQEGTAKVSWADHHPVLQQQRQEELQARQEMYQWKAYNPGWPHCLDEKTVEDLELNIKYSTAKNANFYLQAGSAFAEMKIKGLLDRKGLWRSLNEMKRIFNFRRTPAAEHAFEHWQEDAFFASQFLNGLNPVLIRRCHYLPKNFPVTDAMVASVLGPGTSLQAELEKGSLFLVDHGILSGIQTNVINGKPQFSAAPMTLLYQSPGCGPLLPLAIQLSQTPGPNSPIFLPTDDKWDWLLAKTWVRNAEFSFHEALTHLLHSHLLPEVFTLATLRQLPHCHPLFKLLIPHTRYTLHINTLARELLIVPGQVVDRSTGIGIEGFSELIQRNMKQLNYSLLCLPEDIRTRGVEDIPGYYYRDDGMQIWGAVEHFVSEIIGIYYPSDESVQDDRELQAWVREIFSKGFLNQESSGIPSSLETREALVQYVTMVIFTCSAKHAAVSAGQFDSCAWMPNLPPSMQLPPPTSKGLATCEGFIATLPPVNATCDVILALWLLSKEPGDQRPLGTYPDEHFTEEAPRRSIATFQSRLAQISRGIQERNRGLVLPYTYLDPPLIENSVSI”, the “soluble on expression in E. coli” value is on record as “soluble”. As to “MTERLKVMTIFGTRPEAIKMAPLVLELQKHPEKIESIVTVTAQHRQMLDQVLSIFGITPDFDLNIMKDRQTLIDITTRGLEGLDKVMKEAKPDIVLVHGDTTTTFIASLAAFYNQIPVGHVEAGLRTWDKYSPYPEEMNRQLTGVMADLHFSPTAKSATNLQKENKDESRIFITGNTAIDALKTTVKETYSHPVLEKLGNNRLVLMTAHRRENLGEPMRNMFRAIKRLVDKHEDVQVVYPVHMNPVVRETANDILGDYGRIHLIEPLDVIDFHNVAARSYLMLTDSGGVQEEAPSLGVPVLVLRDTTERPEGIEAGTLKLAGTDEETIFSLADELLSDKEAHDKMSKASNPYGDGRASERIVEAILKHFNK”, the “soluble on expression in E. coli” value is given as “not soluble”. In the case of “MSLNRKHETVSEFVRHLPCENCGSSDANSIYTDNHQYCFACEHYVHGDGETPTTGGRTKRMEGLISGEFKPLMKRKLTLETCRKFGYFVSEVRGRLVQVAPYFDNSGVMVAQKLRDQDKGFAILGDGAKLTLFGQNLWASGGKKIVVTEGELDAMSVSQVQNNKWPVVSLPNGAPAARKAIQRNIEYLESFEEVILMFDMDEPGREAAQECAELFSPGKCKIATLSMKDANELLVAGREQEIVTAIWNAKLYRPDGVVNVRDLLEEIRKALVMGLPWFLDPLTQLTYGRRYGEVYGLGAGTGVGKTDFLTQQIAYDIQVLGERVGTIFLEQKPTETAKRVAGKIAGKRFHVPKDTAGWTDEELDAAVDALGENLVMYDAFGETEWDIVKRKVRYMAVSEGIKLIYIDHLTAMADTADEKGSLEQIMKEMAGLANELGIIITFISHLTTPEGKPHEEGGRVTIRHFKGSRAIGFWSYFMFGLERDQQAEDPVVRQTTTFRILKDRCTGQATGEVLYLAYDRDTGLLSLTEAPEPSSPFKDESEGHHHHHH”, the “soluble on expression in E. coli” value is given as “soluble”. For the sequence “MGGLTLFAAQGCKAPKQVAEQAEHPNIIYVFPDQYRNQAMGFWNQEGFRDKVNFRGDPVHTPNIDTFARESMVLTSAQSNCPLSSPHRGMLLTGMYPNRSGVPLNCNSTRPISSLRDDAECIGDVFSKAGYDCAYFGKLHADFPTPNDPENPGQYVETQRPVWDAYTPKEQRHGFNYWYSYGTFDEHKNPHYWDTDGKRHDPKEWSPLHESGKVVSYLKNEGNVRDTKKPFFIMVGMNPPHSPYRSLNDCEEQDFNLYKDQPLDSLLIRPNVDLNMKKAESVRYYFASVTGVDRAFGQILEALKQLGLDKNTVVIFASDHGETMCSQRTDDPKNSPYSESMNIPFLVRFPGKIQPRVDDLLLSAPDIMPTVLGLCGLGDSIPSEVQGRNFAPLFFDEKAEIVRPAGALYIQNLDGEKDKDGLVQSYFPSSRGIKTARYTLALYIDRKTKQLKKSLLFDDVNDPYQLNNLPLDENKEVVEQLYREMGTMLKEIDDPWYTEKILSDRIPYLEHHHHHH”, the “soluble on expression in E. coli” value is reported as “not soluble”.

On to “SNAMENEKILNPIIIQRADPMIYKHNDGYYYFTASVPEYDRIEVRKAKTIEGLRNAEPVDVWRRHESGEMSNLIWAPEIHFINGAWYIYFAAAPDKNIEDDTFNHRMFVIQNENENPFTGNWVEKGRIKTAWESFSLDATIFEHNEKLYYVWAQQDINIKGHSNIYIAEMENPWTLKTKPVMLTKPELEWEIKGFWVNEGPAVLKKNGKIFITYSASATDVNYCIGMLTAEENSNLLDKNSWTKSQTPVFKTSMENHQYGPGHNSFTVSEDGKHDVIVYHARNYTEIKGDPLYDPNRHTRAQIINWREDGTPDFGVPEVDSLEIETPVKA”, for which the “soluble on expression in E. coli” value was “soluble”.

For “MAHHHHHHMKGSNTVHTREANANEVHASRQDMRAALLPSDTRILVSRIPASAVSVVSDETRAKGRRRCLVTRTLRRCPEMMSHRRGGHAALVSLLLPLTSHRFCVSPSHVLSIASCAFPCTHSCCVQQGVHPSHLPACLPACRRPRACFVSALCRAHEHAVMFSYNNIIEKGEPLNKEIIDHVLDHVTEFPTPTMVSVGDGKADCIVLENFLTHEECDQLVAACEKVGYTFWLQKNHHDADGEATCDSGSKAVRVVDTIEANFPHLSAKLYERIARVVSLKPKCFSEDMPNAEELFERELAGTWVPHALSENLLFGRYHPGGHFMPHVDGATILDLNTRSFYTLLIYLNDCLHGGETFIFAGEQCNVMYLDEKENQYRGNATQRVGAVYPKKGSAAFFYYNLLHEGAPVLEGHKYICRADLLYHRTPTIFTSEADEKAFKAYQEARLAESHGDAERACQLFQRVRKLSKGVASIFQIE”, the “soluble on expression in E. coli” value is given as “not soluble”. As for “MGSDKIHHHHHHMLKICVIGSSGHFRYALEGLDEECSITGIAPGVPEEDLSKLEKAISEMNIKPKKYNNWWEMLEKEKPDILVINTVFSLNGKILLEALERKIHAFVEKPIATTFEDLEKIRSVYQKVRNEVFFTAMFGIRYRPHFLTAKKLVSEGAVGEIRLVNTQKSYKLGQRPDFYKKRETYGGTIPWVGIHAIDWIHWITGKKFLSVYATHSRLHNSGHGELETTALCHFTLENEVFASLSIDYLRPQGAPTHDDDRMRIVGTRGIVEVINERVFLTDEKGHREVPLVEKGQIFEDFLREIRGQGKCMVTPEDSILTTEIALKARLSADTGQIVLI”, the “soluble on expression in E. coli” value is on record as “not soluble”. Regarding “MKNKADNKKRNFLTHSEIESLLKAANTGPHAARNYCLTLLCFIHGFRASEICRLRISDIDLKAKCIYIHRLKKGFSTTHPLLNKEVQALKNWLSIRTSYPHAESEWVFLSRKGNPLSRQQFYHIISTSGGNAGLSLEIHPHMLRHSCGFALANMGIDTRLIQDYLGHRNIRHTVWYTASNAGRFYGIWDRARGRQRHAVL”, the “soluble on expression in E. coli” value is given as “soluble”. Under “MEIDELPSGTQDQKPDIDMNEIVGTHDILMLCFDTLRYDVSVAEEASGGTPVLNSCGNGWEKRHAPGNFTYPSHFAIFAGFLPSPAEPHMLRNRKWLFFPFQAGTGRIPPEGSYAFKEATFVQSLAQVGYETICIGGVNFFSKRNDIGRVFPGYFNKSYWLPTFGCTDKNSAANQVDFAVDKLEKYPADRKVFMYINFSAIHYPNCHYVEGKKKDDKESHAAALRYVDSQLPRLFEAFRRRSDTLVIALSDHGTCYGEDGYEYHCISHEKVYTVPYKHFILRKLEHHHHHH” stands “soluble”.

For the sequence “MVNRCFFFNRRICFMELFLLRHGKPDIRRSMAIRSVDMYSWIGEYDAAGILDSPDASTVAASEGKFIVSSPMPRALESVAALGLEPDIIIDELHEAPLPVFNIPLLKLTPLVWAALFRIFWMAGGSGGVETFSSVKIRAKLVSCELDKMAETHGSVLSVGHGFMNALVARELQKAGWKRQKVGPSGYWSGIKLVRLEHHHHHH”, the “soluble on expression in E. coli” value is given as “soluble”.

For “MSLKAIWHGGFIYTMLEEGDRTEAVYVEDGVIKGTGSYERLKEKYGSPETEEISLNGAVMFPGFVDSHLHLIGHGEKQLQLDLSALTSKDSILQAAKERERQLPKNDWLIGEGWNENQFETPDYLTKHDLDRLFPDRPVLLKRICRHAIAVNSAALQAAGISRNTPDPDGGVIVKDANGEPTGLLFDKAQDLILKAVPPVSQHYVDEALTAAIKDCWTKGLTGGHSEDLSYYGDVSVPMKAYEKAAAGGKYPFRCHLLVHHEAVDRWEQLEKLSGPYVEFGAMKIFADGALGGRTALLKEPYQDDPSTNGVQVHDDETLGRLIRKAREKGMEVAVHAIGDLAFEKVLNAIEKHPPKNGRHDRLIHAQVLDNELIERAARMPIALDLQPHFVASDFPWVIDRLGKDRMKTAFAWKTLISKGILCAGGSDAPIEPVDPLLGIQSAVLRKSSHEQNGPSYNESECLPVYEAIKLYTEGSAGIIYKEKSRGKIAEGYDADFTVLSGDPFAIDPAQLHLLEIKKTVINGQIVYEKSEGHHHHHH”, the “soluble on expression in E. coli” value is “soluble”.

On to “MGSDKIHHHHHHMASFQSFGIPGQLEVIKKALDHVRVGVVITDPALEDNPIVYVNQGFVQMTGYETEEILGKNCRFLQGKHTDPAEVDNIRTALQNKEPVTVQIQNYKKDGTMFWNELNIDPMEIEDKTYFVGIQNDITKQKEYEKLLEDSLTEITALSTPIVPIRNGISALPLVGNLTEERFNSIVCTLTNILSTSKDDYLIIDLSGLAQVNEQTADQIFKLSHLLKLTGTELIITGIKPELAMKMNKLDANFSSLKTYSNVKDAVKVLPIM”, for which the “soluble on expression in E. coli” value is on record as “not soluble”. “MKEKIALITGVTGQDGSYLAEYLLNLGYEVHGLKRRSSSINTSRIDHLYEDLHSDHKRRFFLHYGDMTDSSNLIHLIATTKPTEIYNLAAQSHVKVSFETPEYTANADGIGTLRILEAMRILGLEKKTRFYQASTSELYGEVLETPQNENTPFNPRSPYAVAKMYAFYITKNYREAYNLFAVNGILFNHESRVRGETFVTRKITRAASAIAYNLTDCLYLGNLDAKRDWGHAKDYVKMMHLMLQAPIPQDYVIATGKTTSVRDFVKMSFEFIGINLEFQNTGIKEIGLIKSVDEKRANALKLNLSHLKKGQIVVRIDERYFRPTEVDLLLGDPTKAEKELDWVREYDLKELVKDMLEYDLKECQKNLYLQDGGYILRNFYE”: the “soluble on expression in E. coli” value is recorded as “soluble”.

Turning to “GSHMETVFTEKAPKPVGPYSQAIKVGNTLYVSGQIPIDPRTNEIVKGDIKVQTRQVLDNIKEIVKAAGFSLSDVAMAFVFLKDMNMFNDFNSVYAEYFKDKPPARVTVEVSRLPKDALIEIAVICSKG”, the “soluble on expression in E. coli” value is on record as “soluble”. Turning to “MAHHHHHHMRRVIHGEVRHHNTDTNNTRIPWDFTMASYEEINNVILPKFPRSRRRSAIIPLLHLAQRQQGGYIPVTAMYKIARICEVPPMQVFETVTFYSMFNRQPVGKYHIQFCVTTPCMLCGCDELVHRTEAYLNVKMHGTTRDGLITLGEMQCLGACVNAPMLVVSDYSRPPHFSYDFVEDLTWDSVKELIENLREGRPFKVGTCREDRRWSEPAGGRTSIFMKEPPKPYCRDLDAKPVQPGASTGGAAKK”, the “soluble on expression in E. coli” value was “not soluble”. Then “MAAAGEEYSSDKIEERSLAAIDSMIDPDISGPMRHIVVKAIHAAGDFAIAPLIRYSDGFFKSMLAKLKEGCTIICDSEMVRAGIYSRPVLERNRVVCYLNDVRSKEMADVNGITRSAAGIRIAMQDHRNSVIVIGNAPTALLEAMRMIEENGWYDIPIVGIPVGFINASKAKEGLVSSHIEYISVEGHRGGSPIAASIVNGFGRFLA”, with “soluble”.
